The target of this series is T1, PhaR (Ralstonia eutropha H16 (Cupriavidus necator)) (UniProt Q0KBP6).
T1 sequence: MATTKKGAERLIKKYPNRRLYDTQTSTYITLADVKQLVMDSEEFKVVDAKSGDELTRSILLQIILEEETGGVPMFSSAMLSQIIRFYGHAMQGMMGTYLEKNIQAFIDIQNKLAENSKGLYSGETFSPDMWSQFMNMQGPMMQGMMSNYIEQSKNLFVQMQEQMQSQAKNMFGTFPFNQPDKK
Kind of series: EMSA. To be noted: EMSA: 0-250 ng PhaR, ~75 ng FAM-DNA, 5 uL master mix (1.75 uL 10x TBE, 0.25 uL 10 mg/mL herring sperm DNA, 3 uL DNA), 30 min at 37 C, 7.5% native PAGE.
Turning to “ATCGAATTCACGATGCACTTTTATTGTCCTGTTTTAAAGACTTTTTGGGTATATACCTAGGGATCAAATTAGAGGAAACCCTCTAGGATTCGCACTCGGATGCTGCGCTGCAGGATTGGTGGCGCTGTCAATCCGGAAGCCAAACCGAAGCGGATTCACGTTGCAATCTGTTGCGCGAATCCGTTCGATCAATCCACAG (double strand) [F2 (BS2, phaP3)]”, the binding result was “binds more weakly”.
On to “ATCGAATTCTGTATTCAGAGATCCGTTCCAAGCGTCTGGGGTGAAGTGCGCCCTACACATGTCATGCACTGCAACATTTCTGCGTAAGCACATGTAAATTTAGAGACGTACGATGCACTTTTATTGTCCTGTTTTAAAGACTTTTTGGGTATATACCTAGGGATCAAATTAGAGGAAACCCTCTAGGATTCGCACTCGGATGCT (double strand) [F1 (BS1, phaP3)]”, for which the binding entry is “binds”.
In the case of “ATCGAATTCTGTATTCAGAGATCCGTTCCAAGCGTCTGGGGTGAAGTGCGCCCTACACATGTCATGCACTGCAACATTTCTGCGTAAGCACATGTAAATTTAGAGACGTACGATGCACTTTTATTGTCCTGTTTTAAAGACTTTTTGGGTATATACCTAGGGATCAAATTAGAGGAAACCCTCTAGGATTCGCACTCGGATGCTGCGCTGCAGGATTGGTGGCGCTGTCAATCCGGAAGCCAAACCGAAGCGGATTCACGTTGCAATCTGTTGCGCGAATCCGTTCGATCAATCCACAG (double strand) [F4 (BS1+BS2, phaP3)]”, the binding entry is “binds”.
In the case of “GGCGCTGTCAATCCGGAAGCCAAACCGAAGCGGATTCACGTTGCAATCTGTTGCGCGAATCCGTTCGATCAATCCACAGGAGATTTTGCATGTCCCCTTTTATGCCCGAGCAATTTGCTGCAGTGCAAAAGTCCAGTCTGAACCAACTGTTCGCGCTGACGAACATGGCTTTTGACGGCGGA (double strand) [F3 (BS3, phaP3)]”, the binding entry is given as “binds more weakly”.
